Patent publication US20240301064A1

Target: PD-1 on PD-1 reporter Jurkat cells
Assay: cell-based or functional assay

- SHP-2 recruitment, Ig-tethered test article, PD-1 reporter Jurkat cells; EC50: 2.94 nM
- SHP-2 recruitment, Ig-tethered test article, PD-1 reporter Jurkat cells; EC50 (second experiment): 2.59 nM
Substance: CC-90006 (antibody)
